Publication PMC10055720

Molecular target: human TERT∆TEN D788R, FLAG-tagged, co-expressed with TR (human)

human TERT TEN domain (aa 2–197), Myc-tagged (from UniProt O14746 2-197) (domain or fragment)
POT1–TPP1-stimulated processivity in the trans complementation primer extension assay, relative to WT: 64% | total telomerase activity in the trans complementation primer extension assay, relative to WT TERT∆TEN with TEN: 24 % of WT
